The results in this text go back to ChEMBL document CHEMBL1145329, “Novel methylenephosphophosphonate analogues of mycophenolic adenine dinucleotide. Inhibition of inosine monophosphate dehydrogenase” (J Med Chem, 2006).

The data set relates to NC(=O)c1ccc[n+]([C@@H]2O[C@H](COP(=O)([O-])OP(=O)(O)OC[C@H]3O[C@@H](n4cnc5c(N)ncnc54)[C@H](O)[C@@H]3O)[C@@H](O)[C@H]2O)c1. As to the kind of experiment: Inhibition of human IMPDH. It counts as protein assay.

Usually Km stands for the concentration of substrate that gives half-maximal velocity. With “Inosine-5'-monophosphate dehydrogenase (IMPDH) (Homo sapiens) (from UniProt P20839+P12268)”, the Michaelis constant (Km) was determined as 100 µM.
